Measured values as given in publication PMC8257674, “Structural basis of inhibition of a transporter from Staphylococcus aureus, NorC, through a single-domain camelid antibody” (Communications Biology, 2021).

Tests used:
Details in all cases: both partners purified
NorC WT [1] = target: T1, NorC WT (Staphylococcus aureus subsp. aureus COL …); test: ITC; ICab (200 uM, syringe) titrated into NorC WT (20 uM, cell) with 1 mM TPP in both cell and syringe; 25 °C; 20 mM HEPES pH 7.0, 200 mM NaCl, 4 mM n-decyl-beta-D-maltopyranoside; 16 injections of 2.5 ul; one set of sites model
T1 construct: also called NorC wild-type; source: E. coli C41(DE3), extracted from membranes in DDM, purified (Ni-NTA, SEC in DM)
T1 chain: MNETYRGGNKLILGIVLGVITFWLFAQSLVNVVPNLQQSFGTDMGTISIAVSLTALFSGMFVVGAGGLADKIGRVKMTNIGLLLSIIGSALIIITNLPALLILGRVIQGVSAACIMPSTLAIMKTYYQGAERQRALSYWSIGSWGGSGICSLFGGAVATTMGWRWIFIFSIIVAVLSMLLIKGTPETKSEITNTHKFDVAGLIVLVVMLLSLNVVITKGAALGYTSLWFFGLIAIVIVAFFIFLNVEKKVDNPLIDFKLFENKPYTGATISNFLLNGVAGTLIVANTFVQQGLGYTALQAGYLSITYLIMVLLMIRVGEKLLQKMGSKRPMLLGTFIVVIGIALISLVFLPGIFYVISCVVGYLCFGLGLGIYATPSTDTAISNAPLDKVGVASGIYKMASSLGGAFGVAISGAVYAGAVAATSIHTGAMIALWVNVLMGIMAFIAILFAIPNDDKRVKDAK

NorC WT [2] = target: T1, NorC WT; test: ITC; ICab (200 uM, syringe) titrated into NorC WT (20 uM, cell); 25 °C; 20 mM HEPES pH 7.0, 200 mM NaCl, 4 mM n-decyl-beta-D-maltopyranoside; one set of sites model
NorC WT (wild-type) [3] = target: T2, NorC WT (wild-type) (Staphylococcus aureus subsp. aureus COL …); test: MST; 10 nM transporter labelled with red Tris-NTA dye, ICab titrated from 5 uM in twofold dilutions; Monolith NT.115 premium-coated capillaries; single-site binding model
T2 construct: not shown: His8, C-terminal, kept
T2 chain: T1 chain

NorC WT (wild-type) [4] = target: T2, NorC WT (wild-type); test: ITC; as without TPP+, but in the presence of 1 mM TPP+; 16 injections of 2.5 ul; 25 °C; 20 mM HEPES pH 7.0, 200 mM NaCl, 4 mM DM
NorC WT (wild-type) [5] = target: T3, NorC WT (wild-type) (Staphylococcus aureus subsp. aureus COL …); test: ITC; ICab (200 uM) in the syringe titrated into NorC WT (20 uM) in the cell, with 1 mM TPP in both cell and syringe; 25 °C; 20 mM HEPES pH 7.0, 200 mM NaCl, 4 mM n-decyl-beta-D-maltopyranoside; 16 injections of 2.5 ul; one set of sites model
T3 chain: T1 chain

NorC WT (wild-type) [6] = target: T3, NorC WT (wild-type); test: ITC; ICab (200 uM) in the syringe titrated into NorC WT (20 uM) in the cell; 25 °C; 20 mM HEPES pH 7.0, 200 mM NaCl, 4 mM n-decyl-beta-D-maltopyranoside; one set of sites model

B1: single-domain Indian camelid antibody (ICab) (VHH)
VHH: QVQLEESGGGSVQAGGSLRLSCAASGYMYSTYSTYCMGWFRQAPGKEREGVAFIKRGDHSTYYTDSVKGRFTISQDSAKNTVSLQMNNLKPEDTAIYYCAADFAHSFLLSVHSGAGQYSYWGQGTQVTVSS
Q: How did the “stoichiometry N” value (NorC WT [1]) turn out when B1 was run?
A: Its value is 1.14 ± 0.012.

Q: And the Kd (NorC WT [2])?
A: Its Kd is 46.6 ± 8.9 nM.

Q: And the “stoichiometry N” value (NorC WT [2])?
A: Its value is 1.04 ± 0.005.

B2: Zn2+-bound single-domain Indian camelid antibody (ICab) (VHH)
VHH: B1 VHH
notes: also called single-domain camelid antibody; vhh
Q: How did the Kd (NorC WT (wild-type) [3]) turn out when B2 was run?
A: Its Kd is 37.5 ± 16 nM.

Q: What about the Kd (NorC WT (wild-type) [4]) of the same binder?
A: Its Kd is 35.6 ± 16 nM.

B3: single-domain Indian camelid antibody (ICab) (VHH)
VHH: B1 VHH
notes: also called single-domain camelid antibody
Q: With B3 as the binder, how does the “stoichiometry N” value (NorC WT (wild-type) [5]) read?
A: Its value is 1.14.

Q: What about the Kd (NorC WT (wild-type) [6]) of the same binder?
A: Its Kd is 46.6 nM.

Q: And the “stoichiometry N” value (NorC WT (wild-type) [6])?
A: Its value is 1.04.
